In patent publication US20030100489:

How the values were obtained:
GST-p15 = biological target: T1, GST-p15
T1 chain: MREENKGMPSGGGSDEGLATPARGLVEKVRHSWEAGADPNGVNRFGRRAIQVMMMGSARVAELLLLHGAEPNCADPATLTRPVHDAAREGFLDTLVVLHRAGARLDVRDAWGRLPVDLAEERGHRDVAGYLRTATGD

GST-p16 fusion protein = biological target: T2, GST-p16 fusion protein
T2 chain: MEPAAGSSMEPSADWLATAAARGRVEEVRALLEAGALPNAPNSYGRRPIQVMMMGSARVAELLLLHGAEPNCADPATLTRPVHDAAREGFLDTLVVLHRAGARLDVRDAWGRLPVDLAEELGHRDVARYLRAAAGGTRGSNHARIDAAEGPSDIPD

p15 = biological target: T3, p15
T3 chain: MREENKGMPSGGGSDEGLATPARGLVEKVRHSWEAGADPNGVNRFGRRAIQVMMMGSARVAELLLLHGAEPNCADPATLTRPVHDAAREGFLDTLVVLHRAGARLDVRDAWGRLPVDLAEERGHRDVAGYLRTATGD

p16 = biological target: T4, p16
T4 chain: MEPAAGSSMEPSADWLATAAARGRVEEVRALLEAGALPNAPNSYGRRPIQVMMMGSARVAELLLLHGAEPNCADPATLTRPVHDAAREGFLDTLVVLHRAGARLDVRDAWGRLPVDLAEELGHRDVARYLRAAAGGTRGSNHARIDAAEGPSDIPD

p21, P38936, sequence (P38936 whole entry, the tested form may be a part): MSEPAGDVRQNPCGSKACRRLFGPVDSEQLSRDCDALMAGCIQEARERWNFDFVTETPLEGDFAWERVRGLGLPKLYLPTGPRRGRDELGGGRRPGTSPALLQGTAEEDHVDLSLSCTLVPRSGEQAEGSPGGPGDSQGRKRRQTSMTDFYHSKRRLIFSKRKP

Row | Protein | kinase activity of CDK4 (GST-RB phosphorylation) (GST-p15) | kinase activity of CDK4 (GST-RB phosphorylation) (GST-p16 fusion protein) | CDK4 kinase activity (GST-RB phosphorylation) (p15) | CDK4 kinase activity (GST-RB phosphorylation) (p16) | ability of CDK4 to phosphorylate RB (p16) | RB phosphorylation by cyclin D/CDK4 (GST-RB substrate) (p21, P38936) | CDK4 kinase activity (GST-RB phosphorylation) (p21, P38936) | CDK4 kinase activity (GST-RB phosphorylation) (p27)
1 | CDK4 (wild-type) (protein) MATSRYEPVAEIGVGAYGTVYKARDPHSGHFVALKSVRVPNGGGGGGGLPISTVREVALLRRLEAFEHPNVVRLMDVCATSRTDREIKVTLVFEHVDQDLRTYLDKAPPPGLPAETIKDLMRQFLRGLDFLHANCIVHRDLKPENILVTSGGTVKLADFGLARIYSYQMALTPVVVTLWYRAPEVLLQSTYATPVDMWSVGCIFAEMFRRKPLFCGNSEADQLGKIFDLIGLPPEDDWPRDVSLPRGAFPPRGPRPVQSVVPEMEESGAQLLLEMLTFNPHKRISAFRALQHSYLHKDEGNPE | Like p16, the p15-GST fusion protein was able to inhibit the kinase activity of CDK4 | Like p16, the p15-GST fusion protein was able to inhibit the kinase activity of CDK4 | upon addition of increasing amounts of either p16- or p15containing lysate to the CDK4/cyclin D mixture, the wild-type CDK4 was inhibited | upon addition of increasing amounts of either p16- or p15containing lysate to the CDK4/cyclin D mixture, the wild-type CDK4 was inhibited | In response to increasing amounts of p16, corresponding decreases in the ability of CDK4 to phosphorylate RB was observed | Addition of increasing amounts of p21 resulted in the accumulation of cyclin D/CDK4/p21 ternary complexes with a corresponding inhibition of RB phosphorylation |  | 
2 | CDK4 Arg24-Cys mutant (protein) MATSRYEPVAEIGVGAYGTVYKACDPHSGHFVALKSVRVPNGGGGGGGLPISTVREVALLRRLEAFEHPNVVRLMDVCATSRTDREIKVTLVFEHVDQDLRTYLDKAPPPGLPAETIKDLMRQFLRGLDFLHANCIVHRDLKPENILVTSGGTVKLADFGLARIYSYQMALTPVVVTLWYRAPEVLLQSTYATPVDMWSVGCIFAEMFRRKPLFCGNSEADQLGKIFDLIGLPPEDDWPRDVSLPRGAFPPRGPRPVQSVVPEMEESGAQLLLEMLTFNPHKRISAFRALQHSYLHKDEGNPE |  |  | the mutant CDK4 was relatively unaffected | the mutant CDK4 was relatively unaffected |  |  | the particular mutation, Arg24-Cys, did not effect the binding or inhibitory ability of either of those proteins | the particular mutation, Arg24-Cys, did not effect the binding or inhibitory ability of either of those proteins
